Consider 83 variants from the RNAGym collection of RNA variant scans (doi:10.1073/pnas.2313332121).

The labels stand for the following.
B1: TPR 5TU (parent)
chain: GGAUCUUCUCGAUCUAACAAAAAAGACAAAUCUGCCACAAAGCUUGAGAGCAUCUUCGGAUGCAGAGGCGGCAGCCUUCGGUGGCGCGAUAGCGCCAACGUUCUCAACUAUGACACGCAAAACGCGUGCUCCGUUGAAUGGAGUUUAUCAUG

This sample holds only a part of the variants without activity.

The series covers variants of B1. Nature of the series: polymerase ribozyme fitness, log enrichment relative to wild type (log ratio); higher = more active; in vitro selection for triplet polymerase activity. Put shortly: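 Streptavidin-bead capture of gel-excised extended constructs, followed by RT-PCR, closed a single triplicate in vitro selection round. That round began by annealing PCR-built, transcribed mutant libraries of each subunit of a heterodimeric triplet polymerase ribozyme with a biotinylated primer, the partner subunit and triplets, then incubating them frozen at −7 °C. After Illumina sequencing of inputs and outputs, genotypes needed ≥10 input reads and ≥1 read per output. Fitness is the base-2 logarithm of genotype enrichment over wild-type enrichment, using inverse-variance-weighted replicate averages.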
As for U7G C14G A52C U55C G80A G86U C87A, the “polymerase ribozyme fitness (log ratio)” value is not above -4.2.
Consider U9C C54A C87G U134A, for which the “polymerase ribozyme fitness (log ratio)” value was not above -4.2.
Next, C8A U15G C95U A98G C149U A150U: -4.06; C10A A91U U101G: -4.05.
U7C C27G C57G G88C G124A U134G: the “polymerase ribozyme fitness (log ratio)” value was not above -4.2.
The figure for C8A U31G A37G G42A G83A is not above -4.2.
The figure for U9A C38A C72A G84A C125U is not above -4.2; for U7G A26U U56A G59U C75G G84U G94U U130G U146C it is not above -4.2; for C8A C85G C103U A110G U134G C149G it is not above -4.2.
Consider U7G A21U C54A A66C A91C G136A, for which the “polymerase ribozyme fitness (log ratio)” value was not above -4.2.
The figure for C8U C18G C38A C76U U78C A106U A110C C132G U135C U144C U148A C149G is not above -4.2; for C8G A29U A41G U61A G68A U82C A89G C116U it is not above -4.2; for U7G C10U C35U A64G C96A C129A it is not above -4.2.
The figure for C8G C96U is -3.47.
In the case of C8A C76A C85U G143C A150U, the “polymerase ribozyme fitness (log ratio)” value is not above -4.2.
The figure for C10A C32G C38U U56G A60G C95A C131U G140U is -4.19; for U9G A52G G71A A73G G128U G143U it is not above -4.2; for C8U C32A A49G G92A C96U U127G A138G it is not above -4.2.
The figure for C8G A24G C76A U139A A142C U144C U148G is not above -4.2; for C8U C14G U33G C51G C54U C57A U77G C87G G136U it is not above -4.2.
As to C8G A22U C85U C103U, the “polymerase ribozyme fitness (log ratio)” value was not above -4.2.
Next, U9C C93A: not above -4.2; C8A A24G A41C C93U A97U A120G: not above -4.2.
Next, C8U A39G G86U U102C U111G U144C G152A: not above -4.2.
Next, U7C G50C C51U C87U G152U: not above -4.2; C8G A52U C95U U104G G140U: not above -4.2; U9C G84A C103U: not above -4.2.
As to U7A C18U, the “polymerase ribozyme fitness (log ratio)” value was -3.45.
Next, U9G C85U G92U U145A: not above -4.2.
Turning to U9G U13G A22C A28U A41C C76U G92A U148A, the “polymerase ribozyme fitness (log ratio)” value was not above -4.2.
For U9A A16U U56A G84A C131U, the “polymerase ribozyme fitness (log ratio)” value is not above -4.2.
Next, U9A A26U G92U A142U: not above -4.2.
Next, U9A A39U U61A C76U C93A A120U G141A: not above -4.2.
Consider C8G C43G A52G C93G C114G A121G, for which the “polymerase ribozyme fitness (log ratio)” value was not above -4.2.
Next, U7C U9C A20U C75G C93U A106C C114A: not above -4.2; U7C A41C C87U G126A: -3.82; U9C C10G C35U G94A C103A C108U A115U G140U: not above -4.2.
For U7G A24C C43A A47G C75U C85A G86A C103G, the “polymerase ribozyme fitness (log ratio)” value was not above -4.2.
Next, C8A A40U G42A G68A C85U U144G: not above -4.2.
Regarding C8A G83U U90G C118A, the “polymerase ribozyme fitness (log ratio)” value was not above -4.2.
As to C8A G86A, the “polymerase ribozyme fitness (log ratio)” value is -3.76.
Next, C8U G141U: -2.76.
Take U9A C75G C85G C95G: the “polymerase ribozyme fitness (log ratio)” value is not above -4.2.
Next, C8A A17C A24G A30G C35G G81C A89C G141C: -3.67; U9G U15C A19U C35G A113U C132U: not above -4.2.
Consider U7C U15G A41U A52G C96A, for which the “polymerase ribozyme fitness (log ratio)” value is -3.52.
Next, U7G C35U U45A A52U G59A C93G G128A G141C: not above -4.2; U9A U15G G50C G94A U135C G143A: not above -4.2; U7A A110C A138U: not above -4.2.
In the case of U9G A41U U53A C96A U102A A150U, the “polymerase ribozyme fitness (log ratio)” value is not above -4.2.
Next, U7C A23G A49U U56G G84U G86U A137U: not above -4.2; U7C A39G C85G C105A A107U: not above -4.2.
C8G A22G U44A A52C A73C C125G: the “polymerase ribozyme fitness (log ratio)” value is not above -4.2.
Next, U9A A64G A89U G92A C131G: not above -4.2; U7C G25U U31C G62C C75U G117U A122G: not above -4.2; C8G G42A G59U A66U C87G U139G: not above -4.2.
The figure for C8A C14G U55A C85U G88U A138U is not above -4.2; for U9A A12U C85U G88C U148G it is not above -4.2.
For the variant U9G U44G G50A U82C C95U U139G, the “polymerase ribozyme fitness (log ratio)” value is not above -4.2.
Next, C8A U53A A73U G74U G92U A142U G143A: not above -4.2; C8G A16C G25U A37C G59C A64U C87A G92C: not above -4.2.
Next, U9G U33A C36A C63U C79G C118A U135A: not above -4.2; U9A A22U A39G C96G U109G: not above -4.2.
Next, C8A C27U C76U: not above -4.2; U7G U44G U55G C99A: not above -4.2; C8A U31G U33G A40U C51U U77C C93G C108G C116U A147G: not above -4.2.
Consider C10A C14U A26U A30G G84A U139G A142U, for which the “polymerase ribozyme fitness (log ratio)” value was not above -4.2.
For C8G G59C G86C G117U, the “polymerase ribozyme fitness (log ratio)” value is not above -4.2.
Next, C8U U13A A40C U44G C93G: not above -4.2; C8A G34C U45A G50A U55A G74A A91G U102G G140C G141A: not above -4.2; U9G A20U U31C C38G G86A U127G: not above -4.2.
For U9G C103A, the “polymerase ribozyme fitness (log ratio)” value is -3.73.
Take U9G C14G A110C C123U G141A: the “polymerase ribozyme fitness (log ratio)” value is not above -4.2.
C8U A60G A121C: the “polymerase ribozyme fitness (log ratio)” value was -3.73.
Consider U9A A16U C57U G70A C79A G88U C95U A119U U151A, for which the “polymerase ribozyme fitness (log ratio)” value was not above -4.2.
With U7G C93G U139A, the “polymerase ribozyme fitness (log ratio)” value was not above -4.2.
In the case of U7G C96U, the “polymerase ribozyme fitness (log ratio)” value is -2.17.
As to U9C U13A U15A C76U G86U, the “polymerase ribozyme fitness (log ratio)” value is -4.11.
With U9A C27U C36A G42C C69A G80A G136U G141C, the “polymerase ribozyme fitness (log ratio)” value is not above -4.2.
Regarding U9G A17G A52U C75G G84A C105U, the “polymerase ribozyme fitness (log ratio)” value was not above -4.2.
The figure for C10A C63U G67A U77C G92A U127C U135G is not above -4.2; for C8G A52G C57U G80C U104G U148G it is not above -4.2.
In the case of C8U C57A, the “polymerase ribozyme fitness (log ratio)” value was -2.69.
